Measured values reported in patent US20060292689A1.

Target: CCR-2 (human) (UniProt P41597)
Assay: cell-based or functional assay

Sequence of CCR-2 (human) (P41597 whole entry): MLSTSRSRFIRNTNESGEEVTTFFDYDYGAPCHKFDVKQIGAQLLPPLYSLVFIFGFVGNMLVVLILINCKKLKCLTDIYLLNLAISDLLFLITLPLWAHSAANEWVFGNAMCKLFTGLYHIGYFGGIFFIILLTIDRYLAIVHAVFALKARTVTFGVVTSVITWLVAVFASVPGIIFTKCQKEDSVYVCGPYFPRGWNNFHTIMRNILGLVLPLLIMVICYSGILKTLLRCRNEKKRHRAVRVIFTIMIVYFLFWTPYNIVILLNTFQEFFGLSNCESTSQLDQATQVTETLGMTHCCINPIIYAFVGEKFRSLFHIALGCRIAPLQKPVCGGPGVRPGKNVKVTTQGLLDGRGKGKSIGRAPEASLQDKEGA

Question: “MCP-1 (from UniProt P13500 24-99) (ligand)” was tested. Which mean fluorescence intensity of CaR expression on monocytes did it give?
Answer: 673 units
